Changes are numbered by the printed parent chain.
Experiments:
[1] = biological target: T1, MICB-Fc (R&D Systems 1599-MB) (human, UniProt Q29980 23-298, limits assumed); assay: SPR, antibody injected over immobilized MICB-Fc
T1 construct: Bought; also called human MICB-Fc; not shown: Fc of the bought fusion protein
T1 sequence: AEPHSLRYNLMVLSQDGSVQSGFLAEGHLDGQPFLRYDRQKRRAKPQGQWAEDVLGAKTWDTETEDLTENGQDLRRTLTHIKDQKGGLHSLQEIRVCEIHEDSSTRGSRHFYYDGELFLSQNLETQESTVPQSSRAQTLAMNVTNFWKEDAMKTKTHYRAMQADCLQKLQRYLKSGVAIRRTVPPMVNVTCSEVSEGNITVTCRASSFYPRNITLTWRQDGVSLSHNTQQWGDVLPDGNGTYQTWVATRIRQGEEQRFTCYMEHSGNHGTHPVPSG
Protocol: For cross-binding study, the human ULBP-1-Fc (R&D systems*), MICB-Fc (*), ULBP-2-Fc (*) and ULBP-3-Fc (*) recombinant proteins were covalently immobilized respectively on the flow cell one to four of a CM5 sensorchip. Anti-MICA antibodies (at a constant concentration of 10 μg/ml) were injected for 2 minutes at a flow rate of 10 μl/min onto the four flow cells in parallel. After each cycle, Sensorchip was regenerated by a five second injection of appropriate regeneration buffer.

[2] = biological target: T2, MICA*008 expressed at the cell surface (human, UniProt Q29983 24-297); assay: flow cytometry on C1R transfectant cells, 4-parameter logistic fit
T2 construct: also called C1R-MICA*008; C1R-MICA*08
T2 chain: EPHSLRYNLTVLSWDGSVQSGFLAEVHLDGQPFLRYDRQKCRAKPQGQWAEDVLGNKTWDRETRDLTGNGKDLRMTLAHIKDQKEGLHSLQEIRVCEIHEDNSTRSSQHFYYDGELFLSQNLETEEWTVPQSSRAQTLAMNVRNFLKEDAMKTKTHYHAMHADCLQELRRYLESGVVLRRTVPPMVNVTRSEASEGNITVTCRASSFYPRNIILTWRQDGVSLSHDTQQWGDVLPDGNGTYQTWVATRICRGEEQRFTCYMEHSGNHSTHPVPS

[3] = biological target: T2, MICA*008 expressed at the cell surface; assay: flow cytometry on C1R transfectant cells
Protocol: The binding of antibodies obtained from the first, second and third immunization series (including CHG1-M-MIA-19E9, CHG1-M-MIA-9C10, CHG1-M-MIA-6E4, CHG1-M-MIA-20C6, CHG1-M-MIA-16A8, CHG1-M-MIA-12A10, CHG1-M-MIA-10A7, CHG1-M-MIA-18E8, CHG1-M-MIA-10F3, CHG1-M-MIA-15F9 and CHG1-M-MIA-14B4) were tested for binding to MICA-expressing CR1 transfectant cells C1R-MICA*001, C1R-MICA*004, C1R-MICA*007 and C1R-MICA*008 (Pr. A. Steinle, Eberhard-Karls University Tuebingen, Germany) described in Salih et al. (2003) Blood 102(4): […]. Binding was analyzed by flow cytometry.
Cells were harvested and stained in PBS 1×/BSA 0.2%/EDTA 2 mM buffer during 30 minutes at 4° C. using a dose-range of the anti-MICA mAbs. After two washes in staining buffer, cells were stained for 30 min at 4° C. with mouse anti-human IgG1-PE monoclonal antibodies (1/11). After two washes, stainings were acquired on a BD FACS Canto II and analyzed using the FlowJo software.

[4] = biological target: T3, recombinant human MICA extracellular domain recombinant-Fc protein (MICA*019 allele, R&D Systems) (human, UniProt Q29983 24-297); assay: SPR solution competition experiment (MICA*019-Fc pre-incubated with antibody, NKG2D-Fc chip)
T3 construct: also called MICA*019-Fc; MICA-Fc; not shown: Fc of the bought fusion protein
T3 chain: T2 chain with G175S
Protocol: SPR measurements were performed on a Biacore T100 apparatus (Biacore GE Healthcare) at 25° C. In all Biacore experiments HBS-EP+ buffer (Biacore GE Healthcare) served as running buffer, 10 mM NaOH, 500 mM NaCl served as regeneration buffer and sensorgrams were analyzed with Biaevaluation 4.1 and Biacore T100 Evaluation software.
For solution competition experiments, the human NKG2D-Fc (R&D systems) recombinant proteins were covalently immobilized onto a CM5 sensorchip. Soluble human MICA*01-BirA or human MICA*019-Fc (R&D systems) recombinant proteins at a constant concentration of 10 μg/ml were pre-incubated with a 5 to 10 molar equivalent excess of antibodies and injected for 2 minutes at a flow rate of 10 μl/min onto the NKG2D-Fc chip. After each cycle, Sensorchips were regenerated by a five second injection of appropriate regeneration buffer.

B1: CHG1-M-MIA-20C6 (antibody, V domains shown)
VH: QITLKESGPGILKPSQTLSLTCSFSGFSLSTSGMGVGWIRQPSGKGLEWLAHIWWDDDKYYNPSLKSQLTISKDTSRNQVFLRITSVDTADTATYYCARRTQGYFDYWGQGTTLTVSS
VL: DIVMTQSPATLSVTPGDRVSLSCRASQSISDYLHWYQQKSHESPRLLIKYASQSISGIPSRFSGSGSGSDFTLSINSVEPEDVGVYYCQNGHSFPWTFGGGTKLEIKR
notes: also called chimeric anti-MICA 20C6
B1 was tested, and the binding result [1] was “no binding (tested: 10 µg/ml)” and the EC50 [2] was 0.13 µg/mL.

B2: CHG1-M-MIA-6E4 (antibody, V domains shown)
VH: EVQLVESGGALVKPGGSLKLSCAASGFTFSYYAMSWVRQTPEKRLEWVATISRGGNYIYYTDSVKGRFTISRDNAKNTLYLQMTSLRSEDTAMFYCASISDYDGAWLAYWGQGTTLTVSS
VL: DVLMTQTPLSLPVSLGDQASISCRSSQSIIHTNGNTYLEWYLQKPGQSPKLLIYKISNRFSGVPDRFSGSGSGTDFTLKISRVEAEDLGVYYCFQGSHVPWTFGGGTKLEIKR
notes: also called chimeric anti-MICA 6E4
B2: binds [3].

B3: CHG1-M-MIA-16A8 (antibody, V domains shown)
VH: EVQLVESGGGLVKPGGSLKLSCAASGFTFSRYAMSWVRQTPEKRLEWVATIFSGGSYTYYPDSVKGRFTISRDNANNTLYLQMSSLKAEDTAMYFCARPNWERTFDYWGQGTTLTVSS
VL: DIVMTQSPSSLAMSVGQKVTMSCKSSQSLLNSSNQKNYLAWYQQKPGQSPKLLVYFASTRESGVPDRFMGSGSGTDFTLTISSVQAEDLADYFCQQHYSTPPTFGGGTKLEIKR
notes: also called CHG1-M-MIA2-16A8; chimeric anti-MICA 16A8
B3: no binding [4].

Reference: patent publication US20200299380A1 (published 2020)
